As usually defined, the Kd is the concentration at which binding is half-saturated. A lower Kd goes with tighter binding.

We go through 13 molecules from publication PMC10786891, “Massively parallel profiling of RNA-targeting CRISPR-Cas13d”.

T1: EsCas13d, nuclease-dead (Eubacterium siraeum, UniProt B0MS50, R295A;H300A;R849A;H854A)
T1 sequence: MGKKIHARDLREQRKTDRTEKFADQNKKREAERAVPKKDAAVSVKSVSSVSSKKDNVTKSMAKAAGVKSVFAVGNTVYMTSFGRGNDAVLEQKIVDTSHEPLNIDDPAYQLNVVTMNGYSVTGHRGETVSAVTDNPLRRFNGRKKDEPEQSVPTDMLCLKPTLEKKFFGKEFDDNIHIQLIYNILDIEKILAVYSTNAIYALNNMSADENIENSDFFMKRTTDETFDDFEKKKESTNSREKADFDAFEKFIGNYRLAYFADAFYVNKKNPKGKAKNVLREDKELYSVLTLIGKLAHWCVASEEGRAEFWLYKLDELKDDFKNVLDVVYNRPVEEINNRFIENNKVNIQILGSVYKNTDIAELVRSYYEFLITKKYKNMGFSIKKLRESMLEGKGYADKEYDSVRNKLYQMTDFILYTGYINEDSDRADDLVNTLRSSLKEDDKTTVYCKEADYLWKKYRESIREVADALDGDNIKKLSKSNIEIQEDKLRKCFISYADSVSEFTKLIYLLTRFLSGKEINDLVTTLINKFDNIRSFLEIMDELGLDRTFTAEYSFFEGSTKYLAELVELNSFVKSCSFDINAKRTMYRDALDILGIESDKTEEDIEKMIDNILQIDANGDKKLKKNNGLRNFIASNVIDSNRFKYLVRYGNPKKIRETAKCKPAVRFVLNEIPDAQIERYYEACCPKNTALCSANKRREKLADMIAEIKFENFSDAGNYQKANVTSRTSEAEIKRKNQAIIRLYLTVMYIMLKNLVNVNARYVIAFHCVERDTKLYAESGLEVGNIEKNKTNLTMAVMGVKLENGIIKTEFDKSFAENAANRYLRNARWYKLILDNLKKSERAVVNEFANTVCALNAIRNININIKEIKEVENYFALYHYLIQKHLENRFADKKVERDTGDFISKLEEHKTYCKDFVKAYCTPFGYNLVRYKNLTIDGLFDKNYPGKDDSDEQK

B1: target 2 MT 5'PFS GCG 3'PFS CGU (mixed)
RNA 1: CACCCGUGCAAAAUUGCAGGGGUCUAAAACCUUCUCCAAAUUGUUUCAUCCU
RNA 2: GGGAAUGGAUCCACAUCUACGAAUUCGCGAGGAUGAAACAAUUUGGAGAAGCGUAGAUCGGAAGAGCACACGU
B2: target 2 MT 5'PFS CAU 3'PFS AUC (mixed)
RNA 1: CACCCGUGCAAAAUUGCAGGGGUCUAAAACCUUCUCCAAAUUGUUUCAUCCU
RNA 2: GGGAAUGGAUCCACAUCUACGAAUUCCAUAGGAUGAAACAAUUUGGAGAAGAUCAGAUCGGAAGAGCACACGU
B3: target 2 MT 5'PFS UGC 3'PFS AGG (mixed)
RNA 1: CACCCGUGCAAAAUUGCAGGGGUCUAAAACCUUCUCCAAAUUGUUUCAUCCU
RNA 2: GGGAAUGGAUCCACAUCUACGAAUUCUGCAGGAUGAAACAAUUUGGAGAAGAGGAGAUCGGAAGAGCACACGU
B4: target 2 MT 5'PFS CAU 3'PFS AUA (mixed)
RNA 1: CACCCGUGCAAAAUUGCAGGGGUCUAAAACCUUCUCCAAAUUGUUUCAUCCU
RNA 2: GGGAAUGGAUCCACAUCUACGAAUUCCAUAGGAUGAAACAAUUUGGAGAAGAUAAGAUCGGAAGAGCACACGU
B5: target 2 MT 5'PFS GCG 3'PFS CGA (mixed)
RNA 1: CACCCGUGCAAAAUUGCAGGGGUCUAAAACCUUCUCCAAAUUGUUUCAUCCU
RNA 2: GGGAAUGGAUCCACAUCUACGAAUUCGCGAGGAUGAAACAAUUUGGAGAAGCGAAGAUCGGAAGAGCACACGU
B6: target 2 MT 5'PFS UCA 3'PFS CUU (mixed)
RNA 1: CACCCGUGCAAAAUUGCAGGGGUCUAAAACCUUCUCCAAAUUGUUUCAUCCU
RNA 2: GGGAAUGGAUCCACAUCUACGAAUUCUCAAGGAUGAAACAAUUUGGAGAAGCUUAGAUCGGAAGAGCACACGU
B7: target 2 MT 5'PFS GAA 3'PFS CAG (mixed)
RNA 1: CACCCGUGCAAAAUUGCAGGGGUCUAAAACCUUCUCCAAAUUGUUUCAUCCU
RNA 2: GGGAAUGGAUCCACAUCUACGAAUUCGAAAGGAUGAAACAAUUUGGAGAAGCAGAGAUCGGAAGAGCACACGU
B8: target 2 MT 5'PFS GAA 3'PFS CAA (mixed)
RNA 1: CACCCGUGCAAAAUUGCAGGGGUCUAAAACCUUCUCCAAAUUGUUUCAUCCU
RNA 2: GGGAAUGGAUCCACAUCUACGAAUUCGAAAGGAUGAAACAAUUUGGAGAAGCAAAGAUCGGAAGAGCACACGU
B9: target 2 MT 5'PFS AAU 3'PFS ACA (mixed)
RNA 1: CACCCGUGCAAAAUUGCAGGGGUCUAAAACCUUCUCCAAAUUGUUUCAUCCU
RNA 2: GGGAAUGGAUCCACAUCUACGAAUUCAAUAGGAUGAAACAAUUUGGAGAAGACAAGAUCGGAAGAGCACACGU
B10: target 2 MT 5'PFS CAU 3'PFS AUU (mixed)
RNA 1: CACCCGUGCAAAAUUGCAGGGGUCUAAAACCUUCUCCAAAUUGUUUCAUCCU
RNA 2: GGGAAUGGAUCCACAUCUACGAAUUCCAUAGGAUGAAACAAUUUGGAGAAGAUUAGAUCGGAAGAGCACACGU
B11: target 2 MT 5'PFS CAG 3'PFS ACA (mixed)
RNA 1: CACCCGUGCAAAAUUGCAGGGGUCUAAAACCUUCUCCAAAUUGUUUCAUCCU
RNA 2: GGGAAUGGAUCCACAUCUACGAAUUCCAGAGGAUGAAACAAUUUGGAGAAGACAAGAUCGGAAGAGCACACGU
B12: target 2 MT 5'PFS GAA 3'PFS CAC (mixed)
RNA 1: CACCCGUGCAAAAUUGCAGGGGUCUAAAACCUUCUCCAAAUUGUUUCAUCCU
RNA 2: GGGAAUGGAUCCACAUCUACGAAUUCGAAAGGAUGAAACAAUUUGGAGAAGCACAGAUCGGAAGAGCACACGU
B13: target 1 insG 3' of 10,insC 3' of 8 (mixed)
RNA 1: CACCCGUGCAAAAAUGCAGGGGUCUAAAACUGAGCGGAUAACCUCUCUAUGG
RNA 2: GGGAAUGGAUCCACAUCUACGAAUUCGUACCAUAGAGAGGUUGAUCCCGCUCACCGAGAUCGGAAGAGCACACGU

The data set addresses T1, EsCas13d, nuclease-dead. As to the kind of experiment: crRNA (strand 1, pre-loaded); Mg2+; 40 mM Tris-HCl pH 7.5, 150 mM NaCl, 6 mM MgCl2, 1 mM DTT, 0.1% Tween-20, 0.2 mg/ml BSA; 25 C; 10 min per concentration, then washed. The settings on record: tags: His6-TwinStrep-SUMO cleaved; N-terminal SNAP kept (SNAP-Surface 488); label: 3' end held by stalled T7 RNA polymerase.
Molecule B1 showed a Kd of 14.4 ± 3 nM.

As for B2, the affinity, expressed as Kd, was 3.3 ± 0.5 nM.

Molecule B3 yielded a dissociation constant (Kd) of roughly 60 nM.

Take B4: the Kd came out at 3.31 ± 0.27 nM.

As to B5, the Kd came out at 30 ± 12 nM.

Take B6: binding was put at a Kd of 5 ± 0.9 nM.

B7 displayed a Kd of 6.6 ± 0.6 nM.

B8 returned a Kd of 4.9 ± 0.7 nM.

With B9, binding was put at a Kd of 7.5 ± 1.3 nM.

Take B10: the Kd was 4.1 ± 0.6 nM.

In the case of B11, binding was put at a Kd of 5.3 ± 2.1 nM.

For the molecule B12, the Kd turned out to be 7 ± 1.5 nM.

As to B13, binding was characterised by a dissociation constant (Kd) of 27.8 ± 1.9 nM.
